Reference: patent US20220220204A1 (published 2022)
Where a chain is given by its changes, count along the chain named. Like-named read-outs stand apart in the source and are kept apart here. Values belong to the binder of their own block, whether it stands above or below them.

What was measured:
Assay in all cases: FACS binding
[1] = biological target: T1, PD-L1 expressed on CHO-K1 cells (UniProt Q9NZQ7 19-290)
[2] = biological target: T2, LAG-3 expressed on CHO-K1 cells (UniProt P18627 23-525)
T2 chain: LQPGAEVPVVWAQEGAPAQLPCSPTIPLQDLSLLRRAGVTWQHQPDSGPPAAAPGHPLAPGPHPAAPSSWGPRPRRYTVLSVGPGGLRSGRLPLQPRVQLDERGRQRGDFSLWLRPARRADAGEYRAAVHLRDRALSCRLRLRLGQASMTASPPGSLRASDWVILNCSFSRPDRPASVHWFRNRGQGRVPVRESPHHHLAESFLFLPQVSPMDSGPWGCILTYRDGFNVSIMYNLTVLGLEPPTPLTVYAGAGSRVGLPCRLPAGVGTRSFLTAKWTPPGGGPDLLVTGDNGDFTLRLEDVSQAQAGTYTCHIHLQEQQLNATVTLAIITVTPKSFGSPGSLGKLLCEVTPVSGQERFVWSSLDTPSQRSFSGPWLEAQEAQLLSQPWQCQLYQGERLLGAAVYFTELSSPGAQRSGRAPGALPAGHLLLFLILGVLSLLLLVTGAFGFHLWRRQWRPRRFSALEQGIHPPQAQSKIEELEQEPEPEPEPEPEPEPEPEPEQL

[3] = biological target: T1, PD-L1 expressed on CHO-K1 cells; remark: listed apart in the source
[4] = biological target: T2, LAG-3 expressed on CHO-K1 cells

T1 sequence (Q9NZQ7 19-290): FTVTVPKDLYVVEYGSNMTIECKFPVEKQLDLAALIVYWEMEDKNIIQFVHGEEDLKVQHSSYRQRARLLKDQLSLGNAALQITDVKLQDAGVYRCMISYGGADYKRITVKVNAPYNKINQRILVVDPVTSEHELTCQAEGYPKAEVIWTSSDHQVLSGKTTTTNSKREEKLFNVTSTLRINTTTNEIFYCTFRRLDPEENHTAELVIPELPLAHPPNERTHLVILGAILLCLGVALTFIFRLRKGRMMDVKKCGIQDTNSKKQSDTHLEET

EC50 [1]: 651 pM
EC50 [2]: 37.6 pM
EC50 [3]: 205 pM
B1: PDL1HCv1 (antibody, V domains shown)
VH: EVQLVQSGAEVKKPGASVKVSCKASGYIFTGYGITWVRQAPGQGLEWMGEIFPRRVQTYYSEKFKGRVTMTTDTSTSTAYMELRSLRSDDTAVYYCARDYDPYFALDYWGQGTTVTVSS
VL: DIQMTQSPSSLSASVGDRVTITCRASQDVSTAVDWYQQKPGKAPKLLIYSASYRYTGVPDRFSGSGSGTDFTFTISSLQPEDIATYYCQQHYSIPFTFGQGTKLEIKR

EC50 [1]: 311 pM
EC50 [4]: 8420 pM
B2: PDL1HCv5 (antibody, V domains shown)
VH: B1 VH with T72A
VL: B1 VL
